In patent US20090099029A1, “Methods and substrates for conducting assays” (Invitrogen Corporation, priority 2005, published 2009):

System: kinases of Table 6 on Myelin Basic Protein (MBP)
Experiment: Kinase assay using MBP substrate, ProQ Diamond stain (Table 6)
Format: biochemical
Settings: kinase printed on MBP-coated slide; 20 uM ATP, 30° C.; ProQ Diamond Microarray Stain; graded Strong/Weak/Negative
In short: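 Reactions ran at 30° C. with 20 uM ATP, 4 mM MgCl2 and 5% DMSO in HEPES pH 7.5, inhibitor added or omitted. Kinases had been arrayed onto slide-bound dephosphorylated bovine MBP; phospho-signal read after ProQ Diamond staining.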

B1: MAPK8(JNK1) (protein)
chain: MSRSKRDNNFYSVEIGDSTFTVLKRYQNLKPIGSGAQGIVCAAYDAILERNVAIKKLSRPFQNQTHAKRAYRELVLMKCVNHKNIIGLLNVFTPQKSLEEFQDVYIVMELMDANLCQVIQMELDHERMSYLLYQMLCGIKHLHSAGIIHRDLKPSNIVVKSDCTLKILDFGLARTAGTSFMMTPYVVTRYYRAPEVILGMGYKENVDLWSVGCIMGEMVCHKILFPGRDYIDQWNKVIEQLGTPCPEFMKKLQPTVRTYVENRPKYAGYSFEKLFPDVLFPADSEHNKLKASQARDLLSKMLVIDASKRISVDEALQHPYINVWYDPSEAEAPPPKIPDKQLDEREHTIEEWKELIYKEVMDLEERTKNGVIRGQPSPLAQVQQ
modifications: left off: small tags and cut ends
B1 was tested, and the “MBP Kinase Activity” value was “Negative”.

B2: MAP4K4(HGK) (protein)
chain: MANDSPAKSLVDIDLSSLRDPAGIFELVEVVGNGTYGQVYKGRHVKTGQLAAIKVMDVTEDEEEEIKLEINMLKKYSHHRNIATYYGAFIKKSPPGHDDQLWLVMEFCGAGSITDLVKNTKGNTLKEDWIAYISREILRGLAHLHIHHVIHRDIKGQNVLLTENAEVKLVDFGVSAQLDRTVGRRNTFIGTPYWMAPEVIACDENPDATYDYRSDLWSCGITAIEMAEGAPPLCDMHPMRALFLIPRNPPPRLKSKKWSKKFFSFIEGCLVKNYMQRPSTEQLLKHPFIRDQPNERQVRIQLKDHIDRTRKKRGEKDETEYEYSGSEE
modifications: left off: a dimerising Fc or GST
In the case of B2, the “MBP Kinase Activity” value is reported as “Strong”.

B3: MAPK13(p38delta) (protein)
chain: MSLIRKKGFYKQDVNKTAWELPKTYVSPTHVGSGAYGSVCSAIDKRSGEKVAIKKLSRPFQSEIFAKRAYRELLLLKHMQHENVIGLLDVFTPASSLRNFYDFYLVMPFMQTDLQKIMGMEFSEEKIQYLVYQMLKGLKYIHSAGVVHRDLKPGNLAVNEDCELKILDFGLARHADAEMTGYVVTRWYRAPEVILSWMHYNQTVDIWSVGCIMAEMLTGKTLFKGKDYLDQLTQILKVTGVPGTEFVQKLNDKAAKSYIQSLPQTPRKDFTQLFPRASPQAADLLEKMLELDVDKRLTAAQALTHPFFEPFRDPEEETEAQQPFDDSLEHEKLTVDEWKQHIYKEIVNFSPIARKDSRRRSGMKL
modifications: left off: small tags and cut ends
In the case of B3, the “MBP Kinase Activity” value is reported as “Weak”.

B4: MAPK14(p38alpha) (protein)
chain: MSQERPTFYRQELNKTIWEVPERYQNLSPVGSGAYGSVCAAFDTKTGLRVAVKKLSRPFQSIIHAKRTYRELRLLKHMKHENVIGLLDVFTPARSLEEFNDVYLVTHLMGADLNNIVKCQKLTDDHVQFLIYQILRGLKYIHSADIIHRDLKPSNLAVNEDCELKILDFGLARHTDDEMTGYVATRWYRAPEIMLNWMHYNQTVDIWSVGCIMAELLTGRTLFPGTDHINQLQQIMRLTGTPPAYLINRMPSHEARNYIQSLTQMPKMNFANVFIGANPLAVDLLEKMLVLDSDKRITAAQALAHAYFAQYHDPDDEPVADPYDQSFESRDLLIDEWKSLTYDEVISFVPPPLDQEEMES
modifications: left off: a dimerising Fc or GST
B4 was tested, and the “MBP Kinase Activity” value was “Strong”.

B5: MINK1 (protein)
chain: MGDPAPARSLDDIDLSALRDPAGIFELVEVVGNGTYGQVYKGRHVKTGQLAAIKVMDVTEDEEEEIKQEINMLKKYSHHRNIATYYGAFIKKSPPGNDDQLWLVMEFCGAGSVTDLVKNTKGNALKEDCIAYICREILRGLAHLHAHKVIHRDIKGQNVLLTENAEVKLVDFGVSAQLDRTVGRRNTFIGTPYWMAPEVIACDENPDATYDYRSDIWSLGITAIEMAEGAPPLCDMHPMRALFLIPRNPPPRLKSKKWSKKFIDFIDTCLIKTYLSRPPTEQLLKFPFIRDQPTERQVRIQLKDHIDRSRKKRGEKEETE
modifications: left off: a dimerising Fc or GST
With B5 the “MBP Kinase Activity” value was “Weak”.

B6: EPHA5 (protein)
chain: SGSCCECGCGRASSLCAVAHPSLIWRCGYSKAKQDPEEEKMHFHNGHIKLPGVRTYIDPHTYEDPNQAVHEFAKEIEASCITIERVIGAGEFGEVCSGRLKLPGKRELPVAIKTLKVGYTEKQRRDFLGEASIMGQFDHPNIIHLEGVVTKSKPVMIVTEYMENGSLDTFLKKNDGQFTVIQLVGMLRGISAGMKYLSDMGYVHRDLAARNILINSNLVCKVSDFGLSRVLEDDPEAAYTTRGGKIPIRWTAPEAIAFRKFTSASDVWSYGIVMWEVVSYGERPYWEMTNQDVIKAVEEGYRLPSPMDCPAALYQLMLDCWQKERNSRPKFDEIVNMLDKLIRNPSSLKTLVNASCRVSNLLAEHSPLGSGAYRSVGEWLEAIKMGRYTEIFMENGYSSMDAVAQVTLEDLRRLGVTLVGHQKKIMNSLQEMKVQLVNGMVPL
modifications: left off: a dimerising Fc or GST
B6 was tested, and the “MBP Kinase Activity” value was “Negative”.

B7: NEK2 (protein)
chain: MPSRAEDYEVLYTIGTGSYGRCQKIRRKSDGKILVWKELDYGSMTEAEKQMLVSEVNLLRELKHPNIVRYYDRIIDRTNTTLYIVMEYCEGGDLASVITKGTKERQYLDEEFVLRVMTQLTLALKECHRRSDGGHTVLHRDLKPANVFLDGKQNVKLGDFGLARILNHDTSFAKTFVGTPYYMSPEQMNRMSYNEKSDIWSLGCLLYELCALMPPFTAFSQKELAGKIREGKFRRIPYRYSDELNEIITRMLNLKDYHRPSVEEILENPLIADLVADEQRRNLERRGRQLGEPEKSQDSSPVLSELKLKEIQLQERERALKAREERLEQKEQELCVRERLAEDKLARAENLLKNYSLLKERKFLSLASNPELLNLPSSVIKKKVHFSGESKENIMRSENSESQLTSKSKCKDLKKRLHAAQLRAQALSDIEKNYQLKSRQILGMR
modifications: left off: small tags and cut ends
For B7, the “MBP Kinase Activity” value was “Strong”.

B8: MYLK2 (protein)
chain: MATENGAVELGIQNPSTDKAPKGPTGERPLAAGKDPGPPDPKKAPDPPTLKKDAKAPASEKGDGTLAQPSTSSQGPKGEGDRGGGPAEGSAGPPAALPQQTATPETSVKKPKAEQGASGSQDPGKPRVGKKAAEGQAAARRGSPAFLHSPSCPAIISSSEKLLAKKPPSEASELTFEGVPMTHSPTDPRPAKAEEGKNILAESQKEVGEKTPGQAGQAKMQGDTSRGIEFQAVPSEKSEVGQALCLTAREEDCFQILDDCPPPPAPFPHRMVELRTGNVSSEFSMNSKEALGGGKFGAVCTCMEKATGLKLAAKVIKKQTPKDKEMVLLEIEVMNQLNHRNLIQLYAAIETPHEIVLFMEYIEGGELFERIVDEDYHLTEVDTMVFVRQICDGILFMHKMRVLHLDLKPENILCVNTTGHLVKIIDFGLARRYNPNEKLKVNFGTPEFLSPEVVNYDQISDKTDMWSMGVITYMLLSGLSPFLGDDDTETLNNVLSGNWYFDEETFEAVSDEAKDFVSNLIVKDQRARMNAAQCLAHPWLNNLAEKAKRCNRRLKSQILLKKYLMKRRWKKNFIAVSAANRFKKISSSGALMALGV
modifications: left off: a dimerising Fc or GST
B8 was tested, and the “MBP Kinase Activity” value was “Negative”.

B9: MAPKAPK5(PRAK) (protein)
chain: MSEESDMDKAIKETSILEEYSINWTQKLGAGISGPVRVCVKKSTQERFALKILLDRPKARNEVRLHMMCATHPNIVQIIEVFANSVQFPHESSPRARLLIVMEMMEGGELFHRISQHRHFTEKQASQVTKQIALALRHCHLLNIAHRDLKPENLLFKDNSLDAPVKLCDFGFAKIDQGDLMTPQFTPYYVAPQVLEAQRRHQKEKSGIIPTSPTPYTYNKSCDLWSLGVIIYVMLCGYPPFYSKHHSRTIPKDMRRKIMTGSFEFPEEEWSQISEMAKDVVRKLLKVKPEERLTIEGVLDHPWLNSTEALDNVLPSAQLMMDKAVVAGIQQAHAEQLANMRIQDLKVSLKPLHSVNNPILRKRKLLGTKPKDSVYIHDHENGAEDSNVALEKLRDVIAQCILPQAGENEDEKLNEVMQEAWKYNRECKLLRDTLQSFSWNGRGFTDKVDRLKLAEIVKQVIEEQTTSHESQ
modifications: left off: small tags and cut ends
B9 was tested, and the “MBP Kinase Activity” value was “Strong”.

B10: MAPKAPK3 (protein)
chain: MDGETAEEQGGPVPPPVAPGGPGLGGAPGGRREPKKYAVTDDYQLSKQVLGLGVNGKVLECFHRRTGQKCALKLLYDSPKARQEVDHHWQASGGPHIVCILDVYENMHHGKRCLLIIMECMEGGELFSRIQERGDQAFTEREAAEIMRDIGTAIQFLHSHNIAHRDVKPENLLYTSKEKDAVLKLTDFGFAKETTQNALQTPCYTPYYVAPEVLGPEKYDKSCDMWSLGVIMYILLCGFPPFYSNTGQAISPGMKRRIRLGQYGFPNPEWSEVSEDAKQLIRLLLKTDPTERLTITQFMNHPWINQSMVVPQTPLHTARVLQEDKDHWDEVKEEMTSALATMRVDYDQVKIKDLKTSNNRLLNKRRKKQAGSSSASQGCNNQ
modifications: left off: small tags and cut ends
B10 was tested, and the “MBP Kinase Activity” value was “Strong”.

B11: MAPK11(p38B) (protein)
chain: MSGPRAGFYRQELNKTVWEVPQRLQGLRPVGSGAYGSVCSAYDARLRQKVAVKKLSRPFQSLIHARRTYRELRLLKHLKHENVIGLLDVFTPATSIEDFSEVYLVTTLMGADLNNIVKCQALSDEHVQFLVYQLLRGLKYIHSAGIIHRDLKPSNVAVNEDCELRILDFGLARQADEEMTGYVATRWYRAPEIMLNWMHYNQTVDIWSVGCIMAELLQGKALFPGSDYIDQLKRIMEVVGTPSPEVLAKISSEHARTYIQSLPPMPQKDLSSIFRGANPLAIDLLGRMLVLDSDQRVSAAEALAHAYFSQYHDPEDEPEAEPYDESVEAKERTLEEWKELTYQEVLSFKPPEPPKPPGSLEIEQ
modifications: left off: small tags and cut ends
For B11, the “MBP Kinase Activity” value was “Strong”.

B12: MAPK12(p38gamma) (protein)
chain: MSSPPPARSGFYRQEVTKTAWEVRAVYRDLQPVGSGAYGAVCSAVDGRTGAKVAIKKLYRPFQSELFAKRAYRELRLLKHMRHENVIGLLDVFTPDETLDDFTDFYLVMPFMGTDLGKLMKHEKLGEDRIQFLVYQMLKGLRYIHAAGIIHRDLKPGNLAVNEDCELKILDFGLARQADSEMTGYVVTRWYRAPEVILNWMRYTQTVDIWSVGCIMAEMITGKTLFKGSDHLDQLKEIMKVTGTPPAEFVQRLQSDEAKNYMKGLPELEKKDFASILTNASPLAVNLLEKMLVLDAEQRVTAGEALAHPYFESLHDTEDEPQVQKYDDSFDDVDRTLDEWKRVTYKEVLSFKPPRQLGARVSKETPL
modifications: left off: small tags and cut ends
With B12 the “MBP Kinase Activity” value was “Strong”.
